Source: the RNAGym collection of RNA variant scans (doi:10.7554/elife.80360)

B1: Hairpin Ribozyme (parent)
chain: GUCCUCUUUCACGUGCGCGUGAAAGAGAGAAGUGAACCAGAGAAACACACGUUGUGGUAUAUUACCUGGUA

Variants of: B1
Test: self-cleavage, relative activity (ratio to wild type); higher = more cleavage; co-transcriptional

Variant | self-cleavage
GUCCUAUUUCACGUGCGCGUGAAAGAGAGCAGUGAACCAGAGAAACACACGUUGUGGUAUAUUACCUGGUA | 0.221
GUCCUAUUUCACGUGCGCGUGAAAGAGAGAAGUAAACCAGAGAAACACACGUUGUGGUAUAUUACCUGGUA | 0.817
GUCCUAUUUCACGUGCGCGUGAAAGCGAGAAGUGAACCAGAGAAACACACGUUGUGGUAUAUUACCUGGUA | 0.418
GUCCUAUUUCACGUGCGCGUGAAAGAGAGAAGUGAACCAGAGAAACACACGUUCUGGUAUAUUACCUGGUA | 0.209
GUCCUAUUUCAUGUGCGCGUGAAAGAGAGAAGUGAACCAGAGAAACACACGUUGUGGUAUAUUACCUGGUA | 0.512
GUCCGCUUUCACGUGCGCGUGAAAGAGAGAAGUGAACCAGAGAAACACACGUUGUGGUAUUUUACCUGGUA | 0.108
GUCCUAUUUCACGUGCGCGUGAAAGAGAGAAAUGAACCAGAGAAACACACGUUGUGGUAUAUUACCUGGUA | 0.122
GUCCUAUUUCACGUGCGCGUGAAAGAGAGAAUUGAACCAGAGAAACACACGUUGUGGUAUAUUACCUGGUA | 0.133
GUCCUAUUUCACGUGCGCGUGAAAGAGAGAACUGAACCAGAGAAACACACGUUGUGGUAUAUUACCUGGUA | 0.133
GUCCGCUUUCACGUGCGCGUGAAAAAGAGAAGUGAACCAGAGAAACACACGUUGUGGUAUAUUACCUGGUA | 0.225
GUCCUAUUUCACGUGCGCGUGAAAGACAGAAGUGAACCAGAGAAACACACGUUGUGGUAUAUUACCUGGUA | 0.118
GUCCUAUUUCACGUGCGCGUGAAAGAGAGAAGUGAACCAGAGAAACAUACGUUGUGGUAUAUUACCUGGUA | 0.158
GUCCGCUUUCACGUGCGCGUGAAAGAGAGAAGUGAACCAGAGAAACACACGUUGUGGUAUAUUACCUAGUA | 0.201
GUCCGCUUUCACGUGCGCGUGAAAGAGAGAAGUGAACCAGAGAAACACACGUUGUUGUAUAUUACCUGGUA | 0.125
GUCCGCUUUCACGUGCGCGUGAAAGAGAGAAGUGAACCAGAUAAACACACGUUGUGGUAUAUUACCUGGUA | 0.198
GUCCGCUUUCACGUGCGCGUGAAAGAGAGAAGUGAACCAGACAAACACACGUUGUGGUAUAUUACCUGGUA | 0.0932
GUCCUAUUUCACGUGCGCGUGAAAGAGAUAAGUGAACCAGAGAAACACACGUUGUGGUAUAUUACCUGGUA | 0.124
GUCCUAUUUCACGUGCGCGUGAAAGAGAAAAGUGAACCAGAGAAACACACGUUGUGGUAUAUUACCUGGUA | 0.129
GUCCUAUUUCACGUGAGCGUGAAAGAGAGAAGUGAACCAGAGAAACACACGUUGUGGUAUAUUACCUGGUA | 0.561
GUCCGCUUUCACGUGCGCGUGAAAGAGAGAAGUGAACCAGAGAAACACACGUUGUGGUAUAUUAGCUGGUA | 0.0535
GUCCUAUUUCACGUGCGCGUGAAAGAGAGAAGUGAACCAGAGAAACACACGUUGUGGUAUAUUACCUGGUC | 1.14
GUCCUAUUUCACGUGCACGUGAAAGAGAGAAGUGAACCAGAGAAACACACGUUGUGGUAUAUUACCUGGUA | 0.663
GUCCGCUUUCACGUACGCGUGAAAGAGAGAAGUGAACCAGAGAAACACACGUUGUGGUAUAUUACCUGGUA | 0.407
GUCCUAUUUCACGUGCGCUUGAAAGAGAGAAGUGAACCAGAGAAACACACGUUGUGGUAUAUUACCUGGUA | 0.505
GUCCUAUUUCACGUGCGCGUGAAAGAGAGAAGUGAACCAGAGAAACACAGGUUGUGGUAUAUUACCUGGUA | 0.175
GUCCUAUUUCACGUGCGCGUGAAAGAGAGAAGUGAACCAGAGAAACACAAGUUGUGGUAUAUUACCUGGUA | 0.223

Variant | self-cleavage
GUCCUAUUUCACGUGCGCGUGAAGGAGAGAAGUGAACCAGAGAAACACACGUUGUGGUAUAUUACCUGGUA | 0.45
GUCCGCUUUCACGUGCGCGUGAAAGAGAGAAGUGAACCAGAGAAACACACGUUGUGUUAUAUUACCUGGUA | 0.163
GUCCGCUUUCACGUGCGCGUGAAAGAGAGAAGUGAACCAGAGAAACACACGUUGUGAUAUAUUACCUGGUA | 0.127
GUCCGCUUUCACGUGCGCGUGAAAGAGAGAAGUGAACCAGAGAAACACACGUUGUGGUAAAUUACCUGGUA | 0.161
GUCCGCUUUCACGUGCGCGUGAAAGAGAGAAGUGAACCAGAGAAACACACGUUGUGGUACAUUACCUGGUA | 0.593
GUCCGCUUUCACGUGCGCGUGAAAGAGAGAAGUGAACCACAGAAACACACGUUGUGGUAUAUUACCUGGUA | 0.14
GUCCGCUUUCACGUGCGCGUGAAAGAGAGAAGUGAACCAUAGAAACACACGUUGUGGUAUAUUACCUGGUA | 0.13
GUCCUAUUUCACGUGCGCGUGAAAGAGAGAAGUGCACCAGAGAAACACACGUUGUGGUAUAUUACCUGGUA | 0.695
GUCCUAUUUCACGUGCGCGUGAAAGAGAGAAGUGGACCAGAGAAACACACGUUGUGGUAUAUUACCUGGUA | 0.619
GUCCUAUUUCACGUGCGCGUGAAAGAGAGAAGUGUACCAGAGAAACACACGUUGUGGUAUAUUACCUGGUA | 0.428
GUCCUAUUUCACGUGCGCGUGAAAGAGAGAAGUGAACCAGAGAAACACACGUUGUGGUUUAUUACCUGGUA | 0.107
GUCCUAUUUCACGUGCGCGUGAAAGAGAGAAGUGAACCAGAGAAACACACGUUGUGGUCUAUUACCUGGUA | 0.113
GUCCGCUUUCACGUGCGCGUAAAAGAGAGAAGUGAACCAGAGAAACACACGUUGUGGUAUAUUACCUGGUA | 0.17
GUCCUAUUUCACGUGCGCGUGAAAGAGAGAAGUGAACCAGAGAAACACACGUUGUGGUAUAUUAUCUGGUA | 0.265
GUCCUAUUUCACGUGCGCGUGAAAGAGAGAAGUGAACCAGAGAAACACACGUUGUGGUAUAUUAGCUGGUA | 0.158
GUCCGCUUUCACGUGCGCGUGAAAGAGAGAAGUGAACCAGAGAAACACACUUUGUGGUAUAUUACCUGGUA | 0.534
GUCCGCUUUCACGUGCGCGUGAAAGAGAGAAGUGAAGCAGAGAAACACACGUUGUGGUAUAUUACCUGGUA | 0.125
GUCCGCUUUCACGUGCGCGUGAAAGAGAGAAGUGAACCAGAGAAAAACACGUUGUGGUAUAUUACCUGGUA | 0.195
GUCCUAUUUCACGUGCGCGUGAAAGAGAGAAGUGAACCAGAGAAACACACUUUGUGGUAUAUUACCUGGUA | 0.58
GUCCGCUUUCACGUGCGCGUGAAAGAGAGAAGUUAACCAGAGAAACACACGUUGUGGUAUAUUACCUGGUA | 1.08
GUCCUAUUUCACGUGCGCGUGAAAGAGGGAAGUGAACCAGAGAAACACACGUUGUGGUAUAUUACCUGGUA | 0.811
GUCCUAUUUCACGUGCGCGUGAAAGAGUGAAGUGAACCAGAGAAACACACGUUGUGGUAUAUUACCUGGUA | 0.365
GUCCGCUUUCACGUGCGCGUGAAAGAGAAAAGUGAACCAGAGAAACACACGUUGUGGUAUAUUACCUGGUA | 0.139
GUCCUAUUUCACGUGCGCGUGAAAGAGAGAAGUGAACUAGAGAAACACACGUUGUGGUAUAUUACCUGGUA | 0.354
GUCCUAUUUCACGUGCGCGUGAAAGAGAGAAGUGAACGAGAGAAACACACGUUGUGGUAUAUUACCUGGUA | 0.149
GUCCGCUUUCACGUGCGCGUGAAAGAGAGAAGUGAACCAGAGAAACAUACGUUGUGGUAUAUUACCUGGUA | 0.196

Variant | self-cleavage
GUCCUAUUUGACGUGCGCGUGAAAGAGAGAAGUGAACCAGAGAAACACACGUUGUGGUAUAUUACCUGGUA | 0.377
GUCCGCUUUCACGUGCGCGUGAAAGAGAGAAGUGAACCAGAGAAACACAUGUUGUGGUAUAUUACCUGGUA | 0.147
GUCCGCUUUCACGUGCGCGUGAAAGAGAGAAGUGAACCAGAGAAACACACGUUGUGGUAUAUUACAUGGUA | 0.0473
GUCCUAUUUCUCGUGCGCGUGAAAGAGAGAAGUGAACCAGAGAAACACACGUUGUGGUAUAUUACCUGGUA | 0.399
GUCCUAUUUCCCGUGCGCGUGAAAGAGAGAAGUGAACCAGAGAAACACACGUUGUGGUAUAUUACCUGGUA | 0.415
GUCCGCUUUCACGUGCGCGUGAAAGAGAGAAGUGAACCAGAGAAACACACGUUGUGGUAUAUUACCUGGUC | 0.732
GUCCGCUUUCACGUGCGGGUGAAAGAGAGAAGUGAACCAGAGAAACACACGUUGUGGUAUAUUACCUGGUA | 0.577
GUCCGCUUUCACGUGCGCGUGAAAGAGAGAAGUGAACCAGAGAAACACACGUUGUGGUAUAUUUCCUGGUA | 0.161
GUCCUAUUUCACGUGCGCGUGAAAGAGAGAAGUGAACCAGAAAAACACACGUUGUGGUAUAUUACCUGGUA | 0.161
GUCCGCUUUCACGUGCGCGUGAAAGAGAGAAGUGAACCAGAGAAACACACGUUGGGGUAUAUUACCUGGUA | 0.2
GUCCGCUUUCACGUGCGCGUGAAAGAGAGAAGUGAACCAGAGAAACACACGUUGUGGGAUAUUACCUGGUA | 0.0427
GUCCGCUUUCACGUGCGCGUGAAAGAGAGAAGUGAACCAGAGAAACACACGUUGUGGUAUAUUACCUGGAA | 0.204
GUCCGCUUUCACGUGCGCGUGAAAGAGAGAAGUGAACCAGAGAAACACACGUUGUGGUAUAUUACCUGGCA | 0.226
GUCCGCUUUCACGUGCGCGUGAAAGAGAGAAGUGAACAAGAGAAACACACGUUGUGGUAUAUUACCUGGUA | 0.12
GUCCGCUGUCACGUGCGCGUGAAAGAGAGAAGUGAACCAGAGAAACACACGUUGUGGUAUAUUACCUGGUA | 0.262
GUCCGCUCUCACGUGCGCGUGAAAGAGAGAAGUGAACCAGAGAAACACACGUUGUGGUAUAUUACCUGGUA | 0.099
GUCCGCUUUCACGUGCCCGUGAAAGAGAGAAGUGAACCAGAGAAACACACGUUGUGGUAUAUUACCUGGUA | 0.35
GUCCGCUUUCACGUGCGCGUGAAAGAGAGAAGUGAACCAGAGAAACACACGGUGUGGUAUAUUACCUGGUA | 0.255
GUCCGCUUUCACGUGCGCGUGAAAGAGAGAAGUGAACCAGAGAAACACACGUUAUGGUAUAUUACCUGGUA | 0.204
GUCCGCUUUCACGUGCGCGUGAAAGAGAGAAGUGAACCAGAGAAACACACGUUCUGGUAUAUUACCUGGUA | 0.212
GUCCUAUUUCACGUGCGCGUGAAAGAGAGAAGUGAACCAGAGAAACCCACGUUGUGGUAUAUUACCUGGUA | 0.221
GUCCUAUUUCACGUGCGCGUGAAAGAGAGAAGUGAACCAGAGAAACUCACGUUGUGGUAUAUUACCUGGUA | 0.182
GUCCUAUUUCACGUGCGCGUGAAAGAGAGAAGUGAACCAGAGAAGCACACGUUGUGGUAUAUUACCUGGUA | 0.0698
GUCCUAUUUCACGUGCGCGUCAAAGAGAGAAGUGAACCAGAGAAACACACGUUGUGGUAUAUUACCUGGUA | 0.364
